Experimental data published in article PMC10842222.

Biological target: CRM1 (UniProt O14980)
Assay: co-immunoprecipitation, immunoblot
Conditions: reference: ALKBH5 WT, EGF-treated; sites Y71

ALKBH5 (from UniProt Q6P6C2) ALKBH5 Y71F, EGF-treated
binding against the reference: stronger
